Eight molecules from patent US20250002588A1 (DIAGONAL THERAPEUTICS, published 2025) can be followed below.

In this assay the target is ALK-1/BMPR-2 receptor pair of the PathHunter U2Os dimerization cells (DiscoverX 93-0962C3) (UniProt P37023 22-503; Q13873 27-1038). As to the kind of experiment: cell-based or functional assay.

B1: DGL895 (bispecific antibody)
chain 1: not shown
chain 2: EVQLLESGGGLVQPGGSLRLSCAASGFTFSDYYMTWIRQAPGKGLEWVSSISGGTTYYADSRKGRFTISRDNSENTLYLQMNSLRAEDTAVYYCARDFGVAGWFGQYGMDVWGQGTLVTVSSGGGGSGGGGSGGGGSQSVLTQPPSASGTPGQRVTISCTGSSSNIGAGYDVHWYQQLPGTAPKLLIYRSNQRPSGVPDRFSGSKSGTSASLAISGLRSEDEADYYCSSYAGNYNLVFGGGTKLTVLDKTHTCPPCPAPEAAGAPSVFLFPPKPKDTLMISRTPEVTCVVVDVSHEDPEVKFNWYVDGVEVHNAKTKPREEQYNSTYRVVSVLTVLHQDWLNGKEYKCKVSNKALPAPIEKTISKAKGQPREPQVCTLPPSRDELTKNQVSLSCAVKGFYPSDIAVEWESNGQPENNYKTTPPVLDSDGSFFLVSKLTVDKSRWQQGNVFSCSVMHEALHNHYTQKSLSLSPGWSHPQFEK
B1: the “% Emax BMP9” value came to 26% and the “Emax (RLU)” value amounted to 715000 RLU.

B2: DGL898 (bispecific antibody)
chain 1: not shown
chain 2: EVQLLESGGGLVQPGGSLRLSCAASGFTFSDYWMTWIRQAPGKGLEWVSSISGGSTYYADSRKGRFTISRDNSENTLYLQMNSLRAEDTAVYYCARDFGVAGWFGQYGMDVWGQGTLVTVSSGGGGSGGGGSGGGGSQSVLTQPPSASGTPGQRVTISCTGSSSNIGAGYDVHWYQQLPGTAPKLLIYRSNQRPSGVPDRFSGSKSGTSASLAISGLRSEDEADYYCSSYAGNYNLVFGGGTKLTVLDKTHTCPPCPAPEAAGAPSVFLFPPKPKDTLMISRTPEVTCVVVDVSHEDPEVKFNWYVDGVEVHNAKTKPREEQYNSTYRVVSVLTVLHQDWLNGKEYKCKVSNKALPAPIEKTISKAKGQPREPQVCTLPPSRDELTKNQVSLSCAVKGFYPSDIAVEWESNGQPENNYKTTPPVLDSDGSFFLVSKLTVDKSRWQQGNVFSCSVMHEALHNHYTQKSLSLSPGWSHPQFEK
B2: the “% Emax BMP9” value was 19% and the “Emax (RLU)” value worked out at 509000 RLU.

B3: DGL899 (bispecific antibody)
chain 1: not shown
chain 2: EVQLLESGGGLVQPGGSLRLSCAASGFTFSDYYMTWIRQAPGKGLEWVSSISGGTTYYADSRKGRFTISRDNSENTLYLQMNSLRAEDTAVYYCARDFGVAGWFGQYGMDVWGQGTLVTVSSGGGGSGGGGSGGGGSQSVLTQPPSASGTPGQRVTISCTGSSSNIGAGYDVHWYQQLPGTAPKLLIYRSNQRPSGVPDRFSGSKSGTSASLAISGLRSEDEADYYCSSYAGNYNLVFGGGTKLTVLDKTHTCPPCPAPEAAGAPSVFLFPPKPKDTLMISRTPEVTCVVVDVSHEDPEVKFNWYVDGVEVHNAKTKPREEQYNSTYRVVSVLTVLHQDWLNGKEYKCKVSNKALPAPIEKTISKAKGQPREPQVCTLPPSRDELTKNQVSLSCAVKGFYPSDIAVEWESNGQPENNYKTTPPVLDSDGSFFLVSKLTVDKSRWQQGNVFSCSVMHEALHNHYTQKSLSLSPGWSHPQFEK
Consider B3, for which the “% Emax BMP9” value is 30% and the “Emax (RLU)” value came out at 812000 RLU.

B4: DGL901 (bispecific antibody)
chain 1: not shown
chain 2: EVQLLESGGGLVQPGGSLRLSCAASGFTFSDYYMTWIRQAPGKGLEWVSSISGGSTYYADSRKGRFTISRDNSENTLYLQMNSLRAEDTAVYYCARDFGVSGWFGQYGMDVWGQGTLVTVSSGGGGSGGGGSGGGGSQSVLTQPPSASGTPGQRVTISCTGSSSNIGAGYDVHWYQQLPGTAPKLLIYRSNQRPSGVPDRFSGSKSGTSASLAISGLRSEDEADYYCSSYAGNYNLVFGGGTKLTVLDKTHTCPPCPAPEAAGAPSVFLFPPKPKDTLMISRTPEVTCVVVDVSHEDPEVKFNWYVDGVEVHNAKTKPREEQYNSTYRVVSVLTVLHQDWLNGKEYKCKVSNKALPAPIEKTISKAKGQPREPQVCTLPPSRDELTKNQVSLSCAVKGFYPSDIAVEWESNGQPENNYKTTPPVLDSDGSFFLVSKLTVDKSRWQQGNVFSCSVMHEALHNHYTQKSLSLSPGWSHPQFEK
For the molecule B4, the “% Emax BMP9” value is 29% and the “Emax (RLU)” value was 800000 RLU.

B5: DGL900 (bispecific antibody)
chain 1: not shown
chain 2: EVQLLESGGGLVQPGGSLRLSCAASGFTFSDYWMTWIRQAPGKGLEWVSSISGGTTYYADSRKGRFTISRDNSENTLYLQMNSLRAEDTAVYYCARDFGVSGWFGQYGMDVWGQGTLVTVSSGGGGSGGGGSGGGGSQSVLTQPPSASGTPGQRVTISCTGSSSNIGAGYDVHWYQQLPGTAPKLLIYRSNQRPSGVPDRFSGSKSGTSASLAISGLRSEDEADYYCSSYAGNYNLVFGGGTKLTVLDKTHTCPPCPAPEAAGAPSVFLFPPKPKDTLMISRTPEVTCVVVDVSHEDPEVKFNWYVDGVEVHNAKTKPREEQYNSTYRVVSVLTVLHQDWLNGKEYKCKVSNKALPAPIEKTISKAKGQPREPQVCTLPPSRDELTKNQVSLSCAVKGFYPSDIAVEWESNGQPENNYKTTPPVLDSDGSFFLVSKLTVDKSRWQQGNVFSCSVMHEALHNHYTQKSLSLSPGWSHPQFEK
On to B5, for which the “% Emax BMP9” value was 12% and the “Emax (RLU)” value amounted to 333000 RLU.

B6: DGL896 (bispecific antibody)
chain 1: not shown
chain 2: EVQLLESGGGLVQPGGSLRLSCAASGFTFSDYWMTWIRQAPGKGLEWVSSISGGTTYYADSRKGRFTISRDNSENTLYLQMNSLRAEDTAVYYCARDFGVSGWFGQYGMDVWGQGTLVTVSSGGGGSGGGGSGGGGSQSVLTQPPSASGTPGQRVTISCTGSSSNIGAGYDVHWYQQLPGTAPKLLIYRSNQRPSGVPDRFSGSKSGTSASLAISGLRSEDEADYYCSSYAGNYNLVFGGGTKLTVLDKTHTCPPCPAPEAAGAPSVFLFPPKPKDTLMISRTPEVTCVVVDVSHEDPEVKFNWYVDGVEVHNAKTKPREEQYNSTYRVVSVLTVLHQDWLNGKEYKCKVSNKALPAPIEKTISKAKGQPREPQVCTLPPSRDELTKNQVSLSCAVKGFYPSDIAVEWESNGQPENNYKTTPPVLDSDGSFFLVSKLTVDKSRWQQGNVFSCSVMHEALHNHYTQKSLSLSPGWSHPQFEK
Regarding B6, the “% Emax BMP9” value came to 10% and the “Emax (RLU)” value worked out at 282000 RLU.

B7: DGL902 (bispecific antibody)
chain 1: not shown
chain 2: EVQLLESGGGLVQPGGSLRLSCAASGFTFSDYWMTWIRQAPGKGLEWVSSISGGSTYYADSRKGRFTISRDNSENTLYLQMNSLRAEDTAVYYCARDFGVAGWFGQYGMDVWGQGTLVTVSSGGGGSGGGGSGGGGSQSVLTQPPSASGTPGQRVTISCTGSSSNIGAGYDVHWYQQLPGTAPKLLIYRSNQRPSGVPDRFSGSKSGTSASLAISGLRSEDEADYYCSSYAGNYNLVFGGGTKLTVLDKTHTCPPCPAPEAAGAPSVFLFPPKPKDTLMISRTPEVTCVVVDVSHEDPEVKFNWYVDGVEVHNAKTKPREEQYNSTYRVVSVLTVLHQDWLNGKEYKCKVSNKALPAPIEKTISKAKGQPREPQVCTLPPSRDELTKNQVSLSCAVKGFYPSDIAVEWESNGQPENNYKTTPPVLDSDGSFFLVSKLTVDKSRWQQGNVFSCSVMHEALHNHYTQKSLSLSPGWSHPQFEK
On to B7, for which the “% Emax BMP9” value turned out to be 19% and the “Emax (RLU)” value worked out at 529000 RLU.

B8: DGL897 (bispecific antibody)
chain 1: not shown
chain 2: EVQLLESGGGLVQPGGSLRLSCAASGFTFSDYYMTWIRQAPGKGLEWVSSISGGSTYYADSRKGRFTISRDNSENTLYLQMNSLRAEDTAVYYCARDFGVSGWFGQYGMDVWGQGTLVTVSSGGGGSGGGGSGGGGSQSVLTQPPSASGTPGQRVTISCTGSSSNIGAGYDVHWYQQLPGTAPKLLIYRSNQRPSGVPDRFSGSKSGTSASLAISGLRSEDEADYYCSSYAGNYNLVFGGGTKLTVLDKTHTCPPCPAPEAAGAPSVFLFPPKPKDTLMISRTPEVTCVVVDVSHEDPEVKFNWYVDGVEVHNAKTKPREEQYNSTYRVVSVLTVLHQDWLNGKEYKCKVSNKALPAPIEKTISKAKGQPREPQVCTLPPSRDELTKNQVSLSCAVKGFYPSDIAVEWESNGQPENNYKTTPPVLDSDGSFFLVSKLTVDKSRWQQGNVFSCSVMHEALHNHYTQKSLSLSPGWSHPQFEK
For the molecule B8, the “% Emax BMP9” value came to 26% and the “Emax (RLU)” value was found to be 701000 RLU.
